We go through 132 substances from the supplement of paper PMC12042874.

± gives the uncertainty stated by the source.

The data set in a line: amyloid nucleation score (Sup35N fusion, yeast selection) (log enrichment); library NNK3; higher = more nucleation; inactive = no reads after selection. An outline of the steps: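 The nucleation score is the log enrichment of output over input reads, calculated with DiMSum and centred on the mode score of non-aggregating sequences. Sequences with under 100 input reads were excluded. Reads came from Illumina sequencing of plasmid inserts from psi-negative yeast expressing Sup35N fused to peptides of 20 random codons, induced 24 hours with 100 μM copper sulfate and grown 7 days at 30°C without adenine and uracil.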
As to DFLFTNFSNSDLRGILCQSF, the amyloid nucleation score entry was “inactive”. As to TWWSEGIYELKYGLFWLGVV, the amyloid nucleation score entry was “inactive”. For the substance SFGLF, the amyloid nucleation score result is “inactive”. Consider GTQVYTGGRVYERLRVMSCV, for which the amyloid nucleation score entry was “inactive”.

Turning to YAAIPQIVINVLVGGTNASC, the amyloid nucleation score came out at 2.1 ± 0.069.

Consider VINCSAHTEFRGLNFRVTCT, for which the amyloid nucleation score result is “inactive”. For EHVRVYFVLDYFDFCQAPAG the value was “inactive”; for RLTTLPIRSPFTLGYTFARK, “inactive”; for YVVFFDFLSQTVIWVSPGRF, “inactive”. As for VVVKKSVVDAWSAYYFRLFV, the amyloid nucleation score result is “inactive”. For HVLGRKLFHGVAVVLFSCEL the value was “inactive”; for AASEPGSKRLEAAQWVPVAS, “inactive”; for IVECFYTL, “inactive”. For IVVVFNPFGDELTYWVTQSM the value was “inactive”; for RLVAVVRCYVLCGKIWGKST, -0.484 ± 0.89. As for TLYVIGLPFDLALMGI, the entry is “inactive”; as for CDRLIVHLFSHLDSGSSVVL, “inactive”; as for IGKRSVRVIDPVFYKPFANM, “inactive”. In the case of RCHISERD, the amyloid nucleation score entry was “inactive”. As for YVPIIWYASQHLVPSKSYSA, the entry is “inactive”; as for EIMYVLTIFSNVFVMFFS, -0.436 ± 0.44; as for VNYSLQVNFVFRWARFKLWL, “inactive”. As for VIIICQLHCYTKTMIIRHRC, the figure is 0.118 ± 0.3; as for DRIVACKLKTGYTQGMVPLL, “inactive”; as for FSFRTMYVFDPLYNKYRIFM, 0.125 ± 0.6. As for VHSCEMSSPPTILKVKLVYL, the entry is “inactive”; as for HWHRLTSCGSRLGTGVHVVL, “inactive”; as for TQNGGVNVIRFYLCDFLSGL, 2.87 ± 0.067. Regarding GSRIGGVL, the amyloid nucleation score entry was “inactive”. For HFLLNWSRQI the value was “inactive”; for VMSKIISTQLVDMR, “inactive”; for DIYMMLICGWGLGKLIPGFM, “inactive”. As for GPHNFGEMSGFVDGTRRSGV, the entry is “inactive”; as for FNSNFHHSVNSVNGITFSEA, “inactive”; as for FIRIHRNAI, “inactive”. As for ILPLMEFGEPKFESSVYSS, the entry is “inactive”; as for TVHYSLIRWTSGNCGLGYW, 0.841 ± 0.17; as for HLFLKHMLLTYCKPCGW, “inactive”.

As to GRLALSTRQHLV, the amyloid nucleation score entry was “inactive”.

Substance CILSVHGGILLFSIGAAFGR had an amyloid nucleation score of 0.779 ± 0.27. For DSLSFGVVIFLYFKPGEFLY the value was “inactive”; for GAHANM, “inactive”. For FPSSMGRQYIGVCKYLSDPP the value was “inactive”; for FLNCFSC, 2.69 ± 0.054. For SILDWYVSVVRRGA, the amyloid nucleation score result was “inactive”. For the substance THNVSKKWLVGVMCINSGRH, the amyloid nucleation score was 1.59 ± 0.099. As for KRKQVSFTH, the entry is “inactive”; as for SQVDIMGKPADAFVPWFDGS, “inactive”; as for RKLKHLS, “inactive”. For LINGTGDRMYTDLLL the value was “inactive”. As for FSVVLYKRWWRTRMATGLLK, the entry is “inactive”; as for ALVAPKAGAFMSLKVQLGMP, 1.67 ± 0.073.

With VWRSNF, the amyloid nucleation score entry is “inactive”. For LRSDMLVVPRIFFACFWSIK the value was “inactive”. The substance ICPIMNCVFFHRTDQSLSFN showed an amyloid nucleation score of 2.29 ± 0.05.

SFLPNKYLL: the amyloid nucleation score entry was “inactive”. As for TLIQFSLMCVYFSDFLPKAF, the entry is “inactive”. In the case of YRRYWLSGRSFRADFIDNKT, the amyloid nucleation score result was “inactive”. Turning to MSILMMSL, the amyloid nucleation score result is “inactive”. As for SHPASVFGGKRMGCCSRPKG, the figure is -0.304 ± 1.1. Consider PNVMNNFVCITDPIPVGSMW, for which the amyloid nucleation score result is “inactive”. With CVSGASKVNWGSCY, the amyloid nucleation score entry is “inactive”. SLLFFRWDIWTVASGYD: the amyloid nucleation score entry is “inactive”. For PDINM the value was “inactive”; for SQKFGALVFI, “inactive”; for VLMGMRCEREFPE, “inactive”. As for TCSSINTLLKYMFLSISLFR, the entry is “inactive”.

As for IMSFVS, the amyloid nucleation score came out at 0.031 ± 0.43. As for ETRFIYAFYFD, the entry is “inactive”. Turning to VPFVRVNDALVVVSLWDKVL, the amyloid nucleation score entry is “inactive”. For TLSMSWDLTKHFAVVTESRG the value was “inactive”; for PRWETSYLIL, “inactive”; for MSAGCLLNL, “inactive”. For KIMSYHIHVMFLLDYMKDRS the value was 1.28 ± 0.15. As for LHAFLEVSVRYTKSRST, the amyloid nucleation score result was “inactive”. As to CCYLLHGGRILMIVVMSHHL, the amyloid nucleation score entry was “inactive”.

Take YVRIWSFMNYAVMVSITLIV: the amyloid nucleation score result is “inactive”. In the case of GLPSFRHSF, the amyloid nucleation score entry is “inactive”. Take HWILSTPCLNVV: the amyloid nucleation score entry was “inactive”. KSRKFYKTSLCLMNTYLMNM: the amyloid nucleation score result was “inactive”. For IDRHAPSEESVPFWSYWNNG the value was “inactive”.

With MYTMSHSGLVLALFDAGSWR, the amyloid nucleation score result is “inactive”.

Regarding FALLMCDSHRSCNNVNNFVH, the amyloid nucleation score result was “inactive”. As for SRVLTYDT, the amyloid nucleation score result was “inactive”. As for CISKCLVNNV, the entry is “inactive”; as for IIFQTVR, “inactive”. For SGLFWRTLEPLNSVDRFYG the value was “inactive”. Substance SNRKPWARHIVDRACM had an amyloid nucleation score of -0.922 ± 1.9. For ATCRRFTLVQPSYLVPCEPY, the amyloid nucleation score entry is “inactive”. For LWVCNRGGTPTSVSSESRRE the value was -0.187 ± 1; for RIRCVMFGGRKSRRKLDSVV, “inactive”. Turning to EDLVLRIDSTAACAELEKWL, the amyloid nucleation score entry was “inactive”. As for LLLNMM, the entry is “inactive”; as for EVSWVSRNVWFNRTCFCVQV, 0.042 ± 0.64.

Take IKRCK: the amyloid nucleation score came to 1.39 ± 0.076.

With GYLSFIVFMGGRPSLSGNSI, the amyloid nucleation score was found to be 1.42 ± 0.14. As for NILFWSF, the entry is “inactive”; as for TCFSYLIFSCGFHSY, 0.404 ± 0.64; as for SKPACRRFTLNDQKRKVEWI, “inactive”.

With AALAY, the amyloid nucleation score result is “inactive”. Turning to CYGNSMIGVFRICFHSLVYV, the amyloid nucleation score result was “inactive”.

On to SIVQLNYTELAVKWSLVS, for which the amyloid nucleation score result is “inactive”.

With WCNVRYLVDMRFFTTVGVKL, the amyloid nucleation score result is “inactive”. For ALCMIYFW the value was 2.79 ± 0.076; for TVLGELKVLFRYWFHIIWYF, “inactive”. For VRAPTYVGAWSPGEFNYRSD the value was “inactive”.

Regarding CKILHDRHMYVCLFAYCFVC, the amyloid nucleation score entry is “inactive”. For LRNLNK the value was “inactive”; for CSVGS, “inactive”; for HRVDND, “inactive”.

Substance SGTHNKVSTRMFGWNFI displayed an amyloid nucleation score of 0.584 ± 0.11.

Take SNVPYKDLQTLWCSHPVSVV: the amyloid nucleation score entry is “inactive”. On to SIRDYSFIASSC, for which the amyloid nucleation score entry was “inactive”. For LMSSGVGLPFSDTSAWLIVW the value was “inactive”. With FDGTGRLRF, the amyloid nucleation score is -0.629 ± 1.2. As for WSVSTQFPCFMSGSIGYNMS, the amyloid nucleation score entry is “inactive”. As for WGLMIWSWPYMFCTLLPASR, the entry is “inactive”; as for IGMVHCIAEDARRLLLYIWV, “inactive”; as for NSCSVVMFPYH, “inactive”. As for LNLCTRLVFNPVTFQGNTFK, the entry is “inactive”; as for VDKLFCWGLYGLATVDNRVY, “inactive”. As for TSFGYNLGLRRCSYRMTAEW, the figure is 1.44 ± 0.13; as for ILDAMDTLLRYSGCDRLSWK, “inactive”; as for FGQYSGVSCNWTPGCPAPCF, “inactive”. With GLMRDCTTAMIGENDAFWSD, the amyloid nucleation score entry was “inactive”. As for YRSFSSKDVSKL, the entry is “inactive”; as for MPWMVATSNM, “inactive”; as for LSMSYLMSVLLCDLQKVYNT, “inactive”.

The substance CPIWKDRDCFLLSIKYYALQ returned an amyloid nucleation score of -0.24 ± 0.31.

As for VHKFDSL, the amyloid nucleation score entry is “inactive”. For ISRVCSNFLGLDVTFLMLLT the value was 1.42 ± 0.14; for YETYKYLYGFVML, “inactive”.
